Test results published in the Human Domainome abundance scans (Beltran et al. 2025).
± gives the uncertainty stated by the source.

B1: LIM and senescent cell antigen-like-containing domain protein 2, residues 13 to 71; numbered along this chain, Q7Z4I7 (parent)
chain: AVCQRCQARFSPAERIVNSNGELYHEHCFVCAQCFRPFPEGLFYEFEGRKYCEHDFQML

Variants of: B1
Assay: abundance fitness (aPCA) (normalised: wild type 0, dead -1); higher = more abundant; growth selection in yeast, the domain comes from the species named
Settings: Homo sapiens

Variant	abundance fitness
AVCQRCQARFSPAERIVNSNGELYHEHCFVCAQCFRPFPEGLFYEFVGRKYCEHDFQML	-0.138 ± 0.057
AVCQRCQARFSPAERIVNSNGELYHEHCFVCAQCFRPFPEGLFYEFDGRKYCEHDFQML	-0.083 ± 0.09
AVCQRCQARFSPAERIVNSNGELYHEHCFVCAQCFRPFPEGLFYEFRGRKYCEHDFQML	-0.154 ± 0.044
AVCQRCQARFSPAERIVNSNGELYHEHCFVCAQCFRPFPEGLFYEFCGRKYCEHDFQML	-0.247 ± 0.1
AVCQRCQARFSPAERIVNSNGELYHEHCFVCAQCFRPFPEGLFYEFLGRKYCEHDFQML	-0.243 ± 0.062
AVCQRCQARFSPAERIVNSNGELYHEHCFVCAQCFRPFPEGLFYEFNGRKYCEHDFQML	-0.335 ± 0.1
AVCQRCQARFSPAERIVNSNGELYHEHCFVCAQCFRPFPEGLFYEFPGRKYCEHDFQML	-0.773 ± 0.1
AVCQRCQARFSPAERIVNSNGELYHEHCFVCAQCFRPFPEGLFYEFAGRKYCEHDFQML	-0.129 ± 0.06
AVCQRCQARFSPAERIVNSNGELYHEHCFVCAQCFRPFPEGLFYEFKGRKYCEHDFQML	-0.274 ± 0.07
AVCQRCQARFSPAERIVNSNGELYHEHCFVCAQCFRPFPEGLFYEFFGRKYCEHDFQML	-0.585 ± 0.15
AVCQRCQARFSPAERIVNSNGELYHEHCFVCAQCFRPFPEGLFYEFTGRKYCEHDFQML	-0.434 ± 0.073
AVCQRCQARFSPAERIVNSNGELYHEHCFVCAQCFRPFPEGLFYEFHGRKYCEHDFQML	0.022 ± 0.11
AVCQRCQARFSPAERIVNSNGELYHEHCFVCAQCFRPFPEGLFYEFSGRKYCEHDFQML	-0.364 ± 0.07
AVCQRCQARFSPAERIVNSNGELYHEHCFVCAQCFRPFPEGLFYEFWGRKYCEHDFQML	-0.49 ± 0.072
AVCQRCQARFSPAERIVNSNGELYHEHCFVCAQCFRPFPEGLFYEFQGRKYCEHDFQML	-0.204 ± 0.078
AVCQRCQARFSPAERIVNSNGELYHEHCFVCAQCFRPFPEGLFYEFGGRKYCEHDFQML	-0.062 ± 0.048
AVCQRCQARFSPAERIVNSNGELYHEHCFVCAQCFRPFPEGLFYEFYGRKYCEHDFQML	-0.453 ± 0.13
AVCQRCQARFSPAERIVNSNGELYHEHCFVCAQCFRPFPEGLFYEFMGRKYCEHDFQML	-0.222 ± 0.081
AVCQRCQARFSPAERIVNSNGELYHEHCFVCAQCFRPFPEGLFYEFEGRKCCEHDFQML	-0.298 ± 0.15
AVCQRCQARFSPAERIVNSNGELYHEHCFVCAQCFRPFPEGLFYEFEGRKACEHDFQML	-0.754 ± 0.11
AVCQRCQARFSPAERIVNSNGELYHEHCFVCAQCFRPFPEGLFYEFEDRKYCEHDFQML	-0.03 ± 0.097
AVCQRCQARFSPAERIVNSNGELYHEHCFVCAQCFRPFPEGLFYEFEVRKYCEHDFQML	-0.775 ± 0.071
AVCQRCQARFSPAERIVNSNGELYHEHCFVCAQCFRPFPEGLFYEFEKRKYCEHDFQML	-0.067 ± 0.062

Variant	abundance fitness
AVCQRCQARFSPAERIVNSNGELYHEHCFVCAQCFRPFPEGLFYEFEERKYCEHDFQML	-0.062 ± 0.059
AVCQRCQARFSPAERIVNSNGELYHEHCFVCAQCFRPFPEGLFYEFEYRKYCEHDFQML	-0.451 ± 0.1
AVCQRCQARFSPAERIVNSNGELYHEHCFVCAQCFRPFPEGLFYEFECRKYCEHDFQML	-0.224 ± 0.079
AVCQRCQARFSPAERIVNSNGELYHEHCFVCAQCFRPFPEGLFYEFESRKYCEHDFQML	-0.021 ± 0.044
AVCQRCQARFSPAERIVNSNGELYHEHCFVCAQCFRPFPEGLFYEFEPRKYCEHDFQML	-0.686 ± 0.084
AVCQRCQARFSPAERIVNSNGELYHEHCFVCAQCFRPFPEGLFYEFEWRKYCEHDFQML	-0.838 ± 0.087
AVCQRCQARFSPAERIVNSNGELYHEHCFVCAQCFRPFPEGLFYEFEIRKYCEHDFQML	-0.789 ± 0.19
AVCQRCQARFSPAERIVNSNGELYHEHCFVCAQCFRPFPEGLFYEFERRKYCEHDFQML	-0.083 ± 0.041
AVCQRCQARFSPAERIVNSNGELYHEHCFVCAQCFRPFPEGLFYEFEHRKYCEHDFQML	-0.411 ± 0.13
AVCQRCQARFSPAERIVNSNGELYHEHCFVCAQCFRPFPEGLFYEFEARKYCEHDFQML	-0.201 ± 0.055
AVCQRCQARFSPAERIVNSNGELYHEHCFVCAQCFRPFPEGLFYEFEMRKYCEHDFQML	-0.398 ± 0.066
AVCQRCQARFSPAERIVNSNGELYHEHCFVCAQCFRPFPEGLFYEFETRKYCEHDFQML	-0.15 ± 0.061
AVCQRCQARFSPAERIVNSNGELYHEHCFVCAQCFRPFPEGLFYEFENRKYCEHDFQML	0.114 ± 0.098
AVCQRCQARFSPAERIVNSNGELYHEHCFVCAQCFRPFPEGLFYEFEQRKYCEHDFQML	-0.238 ± 0.062
AVCQRCQARFSPAERIVNSNGELYHEHCFVCAQCFRPFPEGLFYEFEGRTYCEHDFQML	-0.047 ± 0.08
AVCQRCQARFSPAERIVNSNGELYHEHCFVCAQCFRPFPEGLFYEFEGRVYCEHDFQML	-0.091 ± 0.075
AVCQRCQARFSPAERIVNSNGELYHEHCFVCAQCFRPFPEGLFYEFEGRGYCEHDFQML	-0.212 ± 0.081
AVCQRCQARFSPAERIVNSNGELYHEHCFVCAQCFRPFPEGLFYEFEGRMYCEHDFQML	0.168 ± 0.1
AVCQRCQARFSPAERIVNSNGELYHEHCFVCAQCFRPFPEGLFYEFEGRNYCEHDFQML	0.185 ± 0.17
AVCQRCQARFSPAERIVNSNGELYHEHCFVCAQCFRPFPEGLFYEFEGREYCEHDFQML	-0.263 ± 0.1
AVCQRCQARFSPAERIVNSNGELYHEHCFVCAQCFRPFPEGLFYEFEGRHYCEHDFQML	-0.225 ± 0.16
AVCQRCQARFSPAERIVNSNGELYHEHCFVCAQCFRPFPEGLFYEFEGRAYCEHDFQML	-0.2 ± 0.088
AVCQRCQARFSPAERIVNSNGELYHEHCFVCAQCFRPFPEGLFYEFEGRFYCEHDFQML	-0.3 ± 0.15

Variant	abundance fitness
AVCQRCQARFSPAERIVNSNGELYHEHCFVCAQCFRPFPEGLFYEFEGRPYCEHDFQML	-0.177 ± 0.089
AVCQRCQARFSPAERIVNSNGELYHEHCFVCAQCFRPFPEGLFYEFEGRWYCEHDFQML	-0.191 ± 0.085
AVCQRCQARFSPAERIVNSNGELYHEHCFVCAQCFRPFPEGLFYEFEGRLYCEHDFQML	0.005 ± 0.055
AVCQRCQARFSPAERIVNSNGELYHEHCFVCAQCFRPFPEGLFYEFEGRQYCEHDFQML	-0.032 ± 0.098
AVCQRCQARFSPAERIVNSNGELYHEHCFVCAQCFRPFPEGLFYEFEGRYYCEHDFQML	-0.104 ± 0.11
AVCQRCQARFSPAERIVNSNGELYHEHCFVCAQCFRPFPEGLFYEFEGRSYCEHDFQML	-0.216 ± 0.076
AVCQRCQARFSPAERIVNSNGELYHEHCFVCAQCFRPFPEGLFYEFEGRDYCEHDFQML	-0.473 ± 0.23
AVCQRCQARFSPAERIVNSNGELYHEHCFVCAQCFRPFPEGLFYEFEGRRYCEHDFQML	-0.05 ± 0.058
AVCQRCQARFSPAERIVNSNGELYHEHCFVCAQCFRPFPEGLFYVFEGRKYCEHDFQML	-0.061 ± 0.35
AVCQRCQARFSPAERIVNSNGELYHEHCFVCAQCFRPFPEGLFYLFEGRKYCEHDFQML	-0.039 ± 0.37
AVCQRCQARFSPAERIVNSNGELYHEHCFVCAQCFRPFPEGLFYENEGRKYCEHDFQML	-0.202 ± 0.18
AVCQRCQARFSPAERIVNSNGELYHEHCFVCAQCFRPFPEGLFYEDEGRKYCEHDFQML	-0.217 ± 0.13
AVCQRCQARFSPAERIVNSNGELYHEHCFVCAQCFRPFPEGLFYEQEGRKYCEHDFQML	-0.272 ± 0.097
AVCQRCQARFSPAERIVNSNGELYHEHCFVCAQCFRPFPEGLFYEKEGRKYCEHDFQML	-0.173 ± 0.11
AVCQRCQARFSPAERIVNSNGELYHEHCFVCAQCFRPFPEGLFYEREGRKYCEHDFQML	-0.271 ± 0.06
AVCQRCQARFSPAERIVNSNGELYHEHCFVCAQCFRPFPEGLFYEEEGRKYCEHDFQML	-0.286 ± 0.095
AVCQRCQARFSPAERIVNSNGELYHEHCFVCAQCFRPFPEGLFYEIEGRKYCEHDFQML	-0.446 ± 0.14
AVCQRCQARFSPAERIVNSNGELYHEHCFVCAQCFRPFPEGLFYEHEGRKYCEHDFQML	0.114 ± 0.12
AVCQRCQARFSPAERIVNSNGELYHEHCFVCAQCFRPFPEGLFYEAEGRKYCEHDFQML	-0.039 ± 0.082
AVCQRCQARFSPAERIVNSNGELYHEHCFVCAQCFRPFPEGLFYEMEGRKYCEHDFQML	-0.241 ± 0.1
AVCQRCQARFSPAERIVNSNGELYHEHCFVCAQCFRPFPEGLFYEWEGRKYCEHDFQML	0.014 ± 0.085
AVCQRCQARFSPAERIVNSNGELYHEHCFVCAQCFRPFPEGLFYELEGRKYCEHDFQML	0.029 ± 0.057
AVCQRCQARFSPAERIVNSNGELYHEHCFVCAQCFRPFPEGLFYEPEGRKYCEHDFQML	-0.902 ± 0.17

Variant	abundance fitness
AVCQRCQARFSPAERIVNSNGELYHEHCFVCAQCFRPFPEGLFYECEGRKYCEHDFQML	-0.127 ± 0.1
AVCQRCQARFSPAERIVNSNGELYHEHCFVCAQCFRPFPEGLFYEGEGRKYCEHDFQML	-0.465 ± 0.1
AVCQRCQARFSPAERIVNSNGELYHEHCFVCAQCFRPFPEGLFYEVEGRKYCEHDFQML	-0.05 ± 0.067
AVCQRCQARFSPAERIVNSNGELYHEHCFVCAQCFRPFPEGLFYEFEGVKYCEHDFQML	-0.123 ± 0.077
AVCQRCQARFSPAERIVNSNGELYHEHCFVCAQCFRPFPEGLFYEFEGGKYCEHDFQML	-0.257 ± 0.063
AVCQRCQARFSPAERIVNSNGELYHEHCFVCAQCFRPFPEGLFYEFEGMKYCEHDFQML	-0.102 ± 0.095
AVCQRCQARFSPAERIVNSNGELYHEHCFVCAQCFRPFPEGLFYEFEGTKYCEHDFQML	-0.066 ± 0.087
AVCQRCQARFSPAERIVNSNGELYHEHCFVCAQCFRPFPEGLFYEFEGLKYCEHDFQML	-0.169 ± 0.068
AVCQRCQARFSPAERIVNSNGELYHEHCFVCAQCFRPFPEGLFYEFEGKKYCEHDFQML	0.029 ± 0.11
AVCQRCQARFSPAERIVNSNGELYHEHCFVCAQCFRPFPEGLFYEFEGEKYCEHDFQML	-0.205 ± 0.12
AVCQRCQARFSPAERIVNSNGELYHEHCFVCAQCFRPFPEGLFYEFEGNKYCEHDFQML	-0.482 ± 0.34
AVCQRCQARFSPAERIVNSNGELYHEHCFVCAQCFRPFPEGLFYEFEGIKYCEHDFQML	-0.101 ± 0.12
AVCQRCQARFSPAERIVNSNGELYHEHCFVCAQCFRPFPEGLFYEFEGCKYCEHDFQML	-0.011 ± 0.13
AVCQRCQARFSPAERIVNSNGELYHEHCFVCAQCFRPFPEGLFYEFEGFKYCEHDFQML	-0.245 ± 0.19
AVCQRCQARFSPAERIVNSNGELYHEHCFVCAQCFRPFPEGLFYEFEGDKYCEHDFQML	-0.413 ± 0.26
AVCQRCQARFSPAERIVNSNGELYHEHCFVCAQCFRPFPEGLFYEFEGYKYCEHDFQML	-0.328 ± 0.18
AVCQRCQARFSPAERIVNSNGELYHEHCFVCAQCFRPFPEGLFYEFEGAKYCEHDFQML	-0.057 ± 0.099
AVCQRCQARFSPAERIVNSNGELYHEHCFVCAQCFRPFPEGLFREFEGRKYCEHDFQML	-0.033 ± 0.072
AVCQRCQARFSPAERIVNSNGELYHEHCFVCAQCFRPFPEGLFWEFEGRKYCEHDFQML	-0.145 ± 0.11
AVCQRCQARFSPAERIVNSNGELYHEHCFVCAQCFRPFPEGLFTEFEGRKYCEHDFQML	-0.253 ± 0.075
AVCQRCQARFSPAERIVNSNGELYHEHCFVCAQCFRPFPEGLFSEFEGRKYCEHDFQML	-0.342 ± 0.073
